The results in this text go back to article PMC7477951 (Structure (London, England : 1993), 2019).

The target in assay [1] is human HVEM (L39-C162) expressed in Drosophila S2 cells (human) (UniProt Q92956). Kind of assay: SPR.
The target of assay [2] is human LIGHT (L83-V240) expressed in Drosophila S2 cells (human, UniProt O43557 83-240). Briefly: SEC.
Assay [3] concerns the target T1, HVEM part of the single-chain human CD160-HVEM (sc_CD160:HVEM) (human, UniProt Q92956 39-143).
T1 sequence: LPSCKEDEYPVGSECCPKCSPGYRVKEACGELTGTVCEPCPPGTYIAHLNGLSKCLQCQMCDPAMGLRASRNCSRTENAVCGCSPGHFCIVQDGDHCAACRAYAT
Briefly: crystal structure.

Sequence of human LIGHT (L83-V240) expressed in Drosophila S2 cells (O43557 83-240): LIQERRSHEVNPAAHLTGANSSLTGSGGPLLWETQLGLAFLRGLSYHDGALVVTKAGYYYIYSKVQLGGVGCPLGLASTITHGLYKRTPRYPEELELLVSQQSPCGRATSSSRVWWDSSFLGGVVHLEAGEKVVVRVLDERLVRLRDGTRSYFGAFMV

“human CD160 ectodomain (I27-L158) expressed in Drosophila S2 cells (from UniProt O95971 27-158) (domain or fragment)” registered a Kd in assay [1] of 6.7 µM. Take “refolded human CD160 ectodomain (residues I27-K144) (from UniProt O95971 27-144) (domain or fragment)”: the Kd in assay [1] stood at 7.1 µM.

B1: human HVEM (L39-C162) expressed in Drosophila S2 cells (receptor, UniProt Q92956 39-162, looked up)
chain: LPSCKEDEYPVGSECCPKCSPGYRVKEACGELTGTVCEPCPPGTYIAHLNGLSKCLQCQMCDPAMGLRASRNCSRTENAVCGCSPGHFCIVQDGDHCAACRAYATSSPGQRVQKGGTESQDTLC
For B1, the binding result in assay [2] is on record as “binds”.

B2: CD160 part of the single-chain human CD160-HVEM (sc_CD160:HVEM) (domain or fragment)
chain: INITSSASQEGTRLNLICTVWHKKEEAEGFVVFLCKDRSGDCSPETSLKQLRLKRDPGIDGVGEISSQLMFTISQVTPLHSGTYQCCARSQKSGIRLQGHFFSILFTETGNYTVTGLK
modifications: glycosylated
Take B2: the “stoichiometry N” value in assay [3] stood at 1.
